The data set deals with MLH1 wt;PMS2 wt. As to the kind of experiment: EMSA. The conditions noted are these: untreated; ATP; 20 mM HEPES pH 7.5, 40 ug/ml BSA, 1 mM DTT, 100 mM NaCl, 1.5 ul of 10 mM ATP added, 95 ng DNA, on ice 5 min; 4% native PAGE, 0.5xTBE pH 7.5.

Regarding GT-DNA-substrate (G/T mismatch), the binding signal (% (reference)) came to 100.
